Measured values from the domain aggregation screens of Martell et al. (2025).

Test: soluble fraction after stress (log2 fold change); higher = more stays soluble; pooled small domains, quantitative proteomics
Conditions: stress: 50 degC
Method in brief: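 Custom libraries of small protein domains were pooled and measured in a high-throughput format, with quantitative proteomics as the read-out. Each library was stressed at 50°C. The value is the log2 fold change in the amount of each protein that stays soluble after stress, used as a measure of aggregation propensity; higher values mean more of the protein stays soluble.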

HMSETTSRVLQLLGLLQARRVWTGQELADRLGVTGRSVRRDIERLRDLGYPVHASKGRDGGYQLGA
soluble fraction (log2): -1.01

HMKNHSTFKSVLSNIEFPINERISGHAIQNPILGLIKADHPNFSSDQYIAISELNFYREKYISNYLLTEI
soluble fraction (log2): -3.35

HMVESLTDRELQILSLAAKGYTNKAIAVQLGISDRTVQNHLANTFQKLNAESRTEAVMRAVSLGLISA
soluble fraction (log2): -0.213

HMKNPLIIGMTKDKIIELIGMPDNIKFLDSSLSKSEVWNYDKFGKKLYIKDEKLYQIENIEE
soluble fraction (log2): 0.016

HMSIASASVKEKIRDIVSSEPPQKPFSDAKIAEILAEDGIAIARRTVAKYREEIGIPTKSLRKR
soluble fraction (log2): 0.0195

HMLSYIELTVDNTSKASYIMTDKMKINNFKIIGNNTIRVYENKVSPQDISRTLSMNNVSIEALGRKS
soluble fraction (log2): -1.03

HMIKVASVDGASDELAHEIREIMPLDFPVSYFDLDIKYLHKVLNDIPAVESAAIKVTVSGVLQIDISER
soluble fraction (log2): 0.43

HMVKLSATVKELLDFVIAKKTVTSSNVSKHFDISAQNASGRLKKLHATGLVLGQKEVAESGGLEFVYRS
soluble fraction (log2): -0.183

HMDVFPDESLKAWLIEMGFKLDQKKMNVFTVLRRMLLQTAPSVKEFRILEIVLQQSRRKLKELNDLKKS
soluble fraction (log2): -0.0335

HMDRRIDIANAVKTALGSLPERQKTAIVLVHYEGFSGAETAKLLGISVEAVESLLARARRNLRQTLGP
soluble fraction (log2): -0.455

HMGRQTITLPDFSGQDLEQVKARLTEWGLVPEEKSVFSDSVPLGSVVRTVPAEGDEVSVGDTVTVYKSLGR
soluble fraction (log2): 0.0656

HMAKRYFVTTGVRVRTKPDTANSEVLTVLDEGSEIDYKGDYNNEWVKINYNGQEAYIAKQYVRSEE
soluble fraction (log2): -0.377

HMRLTIAQLSEKTGVPERTIRYYIDRGLVPSAHGERRGAWYDTVHLEPLLRIQQWREAGLSLEAIADLLR
soluble fraction (log2): -1.19

HMSNNILEISSNKKNMKIQENKNLVESYYSKTENLYSFKLVFKNKRDLDQFLKEVYEDDSTINYKTSS
soluble fraction (log2): -0.412

HMDIYKKFIIPATYFGSRLDHVLSELLPELSRSKIQNMIKQNLVMINGNHAAQKQKVVGDEEIIIKDI
soluble fraction (log2): -0.0556

HMDIVQLSEKINVMKMEIPAQAIGKTVLEVNFRARFDLNIIAIENGGKLVEVIKPDYVFREGDILFLSGS
soluble fraction (log2): -1.16

HMTITIGNSDGGYMKMGADGFEVRFSGSDGGNHYAKMYYNNDGWARLTLGSYGEEKARIDSDGMIQTR
soluble fraction (log2): -0.113

HMATINGIEKYLSSGLIPGIGPHTAKKLVEKFGLDTLDIMQYNPDRLTEVEGIGDKKAAKISEAFQEQK
soluble fraction (log2): 0.0735

HMGDERDRLLLARGKRIYQELIGSDRENVAAALREFEAVLAVNNRRAIHVMRQRLAELFGVYEEFLNEEFL
soluble fraction (log2): -2.77

HMQKKEVTVPEVRSKSLKEAAQILSEQNLKYETEPVNVENPDMVVIDQFPKPGGKISEQSVIILYLR
soluble fraction (log2): ≥ 0.62

HMSVTMPNLVGLDEQTAVTRINSSNLSYGSTNYVHSDHEAGVVFKQSTPAYTEVDEHTKIYIWVSLGPEE
soluble fraction (log2): -0.0912

HMTKEAIAQKLRIARQESGLTQKDVSAKIGRPQQTIASWEVGRSQPDADTLYSLLLLYKVSPNTFFEYD
soluble fraction (log2): -0.352

HMAEERVLSVPQSLAGERLDAALASLMPDYSRSRLASWIKEGLVTVDGAGAMPKQKLWGGETLRVQAQPT
soluble fraction (log2): 0.463

HMLPDLQESIDELLNIVDQRLNTSFEELVSGVNTTEKAIAFFLALLETIKWGFIKAEQTNNENKINIEKNY
soluble fraction (log2): 0.0699

HMKKIYEEVSEAILTMIKNGTLKPGDKLLPVHQLAEQFQVGRSAVREALSALRAMGLIEMKQGEGTYVKNF
soluble fraction (log2): -0.462

HMTTYVNGSWSGWNGSTVVKLTDGSVWRQAEYHYEYHYAYRPQARLERDELFVEGMSRGVRV
soluble fraction (log2): -0.104

HMALQDKYKQLVDTATASGVANLQVREQDGVLYIDGEAPSGSVKDQLWDIYGKIDPNFLSGDVVMNINV
soluble fraction (log2): -0.0683

HMTKVIEFLVSDEEHGVRADKAFVSHNQKLSRSYFKKLILNGNLYINNKVNLDPSYKLIKGSTVRIILPE
soluble fraction (log2): -2.07

HMLKASEVLPYVFTDKFFIDDLNLKQDQILGFLEYIDSKLPSQKLLQVSQQFQLIDFLINESKNYKNQ
soluble fraction (log2): -0.382

HMERVNILEKATKDIPNVEVKAFEGLSVNFARENHAQVIVRGLRAVTDFEYELQMAQTNRVLAPDVDTVF
soluble fraction (log2): 0.124

HMEMTGAHLRKKIRAKGFTFQQIADAIGESKQNLSQILSTNNIKTGTLERIAAAMGESVSYF
soluble fraction (log2): -0.191

HMSGEDYLERILMLKEKHGNVRAIDIANSMNFSKPSVSIALHKLSENGYVVIQNNGAIELTEKGLEVAT
soluble fraction (log2): -0.315

HMQRYVVDENLKLDKKDINHIINVMRLNVNDQIKLINNGTIYDAIITKIEKNNVLYEIIKKEESK
soluble fraction (log2): 0.0274

HMDGVSAEAVKSHIKTLIDGEGAKILSDDTLVDLLNAKGFDIARRTVAKYREAMGIGSSVQRRRQKKMG
soluble fraction (log2): 0.178

HMTNQKEITYSQFRQELDQGSIKSVSLQGSRIRGTYVDGGISFRTLAPNDADLIPSLMKHKVDIQVLPED
soluble fraction (log2): 0.247

HMYKLTYVVDGEVYLEETVSYGSKIAAAPAPEKEGYTFSGWEGLPEVMPAKDVTVSGSFTVN
soluble fraction (log2): -0.405

HMGLRERLLNYIAYKGIDKATLERKSGLSNDAVNKMGDNTRVSTLDKISNAFPDINIAWLKTGVGEMILG
soluble fraction (log2): -0.113

HMNDREAAYEDLPDELVRVGQKVFIKSLETEGVIVQPPNKKGEVRVRSGNISTNVKRSDLGLPIEKP
soluble fraction (log2): 0.129

HMETTEELISKTVPISYADMAALTGILDGVKSARGDIQVDDRTSTIIIHDIQSSIDEMMRLIKILD
soluble fraction (log2): -0.999

HMPKLPIIYVLDGHVNKNALTTSGKNKVWIEHELKKHHINSIKDVLIAMTDTEGKFYYQLYD
soluble fraction (log2): -1.44

HMLQARKFTHIQGYEFEAEFLRTNGEFVELQDPQGRKKWFPISNFIQDDKDFIKEQAGNLSS
soluble fraction (log2): -0.0494

HMALSLPDDMTIVRKDGSSLEVRLKSRTVTEIHFERISDSETFQFSIDQLDETTRELVEQYPVM
soluble fraction (log2): -0.0919

HMPTYEEAKTYLKAAFEHIVAAGRDVGELVEFAFAKSGDAVAPYLRRFLSDVHEGRITIQGLTESAKLAV
soluble fraction (log2): 0.206

HMFNDPTMEDALVNLKGITNEVLSYLSSSKIKKLEELAEMSVPELKDIVENISDDEASALIMEARKPWF
soluble fraction (log2): -0.113

HMDYQEVEFEKLGKEILTKILLDINKKATKKTLKILIDGFNYDSYRSFYIAIGKAQISSDSILELLQH
soluble fraction (log2): -0.622

HMDTQITPNKAKEIALAHAGVTEAAANFKKIKLDNKNGKSIYEIEFIANKSRYEFIVDAKNGSIIKFEK
soluble fraction (log2): 0.0656

HMKLTEEEFNAKRKAYLDRLETLNDEAVIKATFMEAASGLGLQKGSAEFGDLRKYFVDRIVDIK
soluble fraction (log2): 0.385

HMFRPDYYEILQVDRHASPEVITAAYRQLLSIYNSEQDGNKQMIKLIQEAYGVLGDSQDRWLYDSWLDNN
soluble fraction (log2): -0.746

HMEIHIGSLIKEKMEERGLSVSDFAHALHYERTNIYKIFKRSSIDVDLLLRISEVLAYDFLREVYL
soluble fraction (log2): -2.63

HMSTDIPFNIFSQKWNADEIDSIVVENNKIEGKTKDNKKFSTYAPDELLTSLMENHKNPNVIVEFRAP
soluble fraction (log2): 0.277

HMPIPIESEISRSPGQSIYAFVQQHYGRSGRSPADMRALVGLILRLNRQIRTPLLIPFGLVVVRPT
soluble fraction (log2): -0.0619

HMTEGDRLARRILRLVRNKPNGYPEVELMKATVLDWNHFQRSISSLEMAGILERRDPGDGTPPVWVEKR
soluble fraction (log2): -0.688

HMSISSIDFENLKSDELSDAQITQIYRQAQEQGLSIDELSSLAIARGMSPTEVAKLRSRFNSIP
soluble fraction (log2): 0.167

HMGGRSARVRRAVLDAVVELLGEGGVRAVTIAEVAKRSGVNASSIYRRWRSIDALILDAAQDL
soluble fraction (log2): -1.81

HMVNIAVMTVSDTRTEADDKSGSLLVSKIEGDGHVLADRAIITDDVPRIIAKLKEWIESPQVDVVVT
soluble fraction (log2): 0.0468

HMTGEERRMNTADLYRRRGMELFKRKIYVDAIDSLKVSLEYEDNATTRYYLDLATKRYQDLKIS
soluble fraction (log2): -1.12

HMPDLSGEEQQIVDILAQRGNLQINTLVVETDIPVHKMNAILFELEMKGVVRVLAGGMYQLL
soluble fraction (log2): -0.263

HMSVPVNAPMPGTILDIKVKAGAAVKAGDVVMILEAMKMENEISAPQDGTIASIDVRKGDTVNSGDVLYTM
soluble fraction (log2): 0.0456

HMAAAKDVMDWQNAIRGLTDAKGKPYSPTYLKTVHNQLSALFNHAVRYYGLQVNPAAKAGNMGVEE
soluble fraction (log2): -0.0939

HMTAEVIYVDVGGEVNQPSVVELTDGSRVTDAIAAAGGLTEKADLTDINRAAFVSDGEKIFIPSQEE
soluble fraction (log2): -0.0513

HMDYIGIQAAKEAALKDADISSEQAVFTMAELDNKNNIFYYQIMFTENGTEYRYDIDALTGVIIEKNHFF
soluble fraction (log2): -1.96

HMLKLEEIQPNATVRGILPDALITVVNVKWFGSEALELTYKDTSGRVANQLLFRDDQPRLEIVE
soluble fraction (log2): -0.538

HMKINYNEFLRRFLGEKEGDIIEMETGKRIGTHKGYWFHTIGQRKGLGLGGGPWFVIRKDIDENIIYVSHG
soluble fraction (log2): -1.06

HMVAEPTYGRTTDVLNIRSGPSTDDERIGQLSRGAVVTILEEKDGWYRLQRGYISADYVTQISAEEASNS
soluble fraction (log2): -0.221

HMNAVDLLSPQEQRIFELIGEGMSNRQIADVMYLAEKTVKNYVSNVLMKLGMERRTEAAALAARLDERQK
soluble fraction (log2): -0.114

HMEIELHNLALNIKEFRKKNKLSQAELAEKLGVARTTIGYYERAEVEPNIYTLVQLSKLMNRSIDSLLGL
soluble fraction (log2): -1.3

HMRNMRKLWIARINAAARMNDISYSKLMHGLKLANVEINRKMLSEMAIDDPKSFTALVETAKKALNG
soluble fraction (log2): -0.894

HMADTSPEGVQKLIKAFEQFGVSKDDIEGFIQRRVDAITPANVVSLRKIFTSLRDGMSSAKDWFKGA
soluble fraction (log2): 0.00107

HMASRKTERINRLIDVLQHATSRVPASVLSKILGIGERSVRNYVSEVNEQGQFRIDSSSGGYRLVA
soluble fraction (log2): -0.147

HMGGEIGSGKNGYVAFYKGKKVDVKADSMYGAQKTAAKYFNAKKEYDVNVVLAEVDGKQYVQS
soluble fraction (log2): 0.343

HMGDKVTIPNLIDMKLTDAQNQYKPQGFSIVKNGERESDKEAGTILEQDKAAGTEISGKDIRIFVVVSSGS
soluble fraction (log2): -0.00368

HMDEGQEHYVKETDLPFYSEADPASSVIFPLVLNQKLIEKERKDDWIRALEPTTGLVGWVLLKSLSPQQLS
soluble fraction (log2): 0.124

HMGTSGLTIPRFVSLASGTVHMRAGPGVRYPITWIYKRLGTPLMVMAEHEFWRKVRDAEGTEGWMHRSLLS
soluble fraction (log2): -0.0684

HMAPTADSVPFVIRSVVGGAQPFIVLEDGSKLLVGGVYRKYRLVAVENTRIIFEGPRTAIVT
soluble fraction (log2): -1.33

HMLKVHPRDQEENRLLLLKGERLYEESTGDTRVMIDMWLRKFEEALNSRSRENIEDARRELKEQLAELDN
soluble fraction (log2): -0.00144
